In patent US20230357367A1:
Where two headings read alike, the source gives them in different places.

Assays:
Assay in all cases: cell-based or functional assay
[1] = target: SARS-CoV-2 Omicron BA.4/5+K444T Spike on pseudovirus (SARS-CoV-2)
[2] = target: spike (SARS-CoV-2, D614G) (SARS-CoV-2) (UniProt P0DTC2)
[3] = target: spike (SARS-CoV-2, BA.1.1 P1162S) (SARS-CoV-2)
[4] = target: spike (SARS-CoV-2, BA.5.8 P1162L) (SARS-CoV-2)
[5] = target: spike (SARS-CoV-2, D614G) (SARS-CoV-2) (UniProt P0DTC2); remark: listed apart in the source
[6] = target: spike (SARS-CoV-2, D614G) (SARS-CoV-2) (UniProt P0DTC2); remark: listed apart in the source
[7] = target: spike (SARS-CoV-2, D614G) (SARS-CoV-2) (UniProt P0DTC2); remark: listed apart in the source
[8] = target: spike (SARS-CoV-2, D614G) (SARS-CoV-2) (UniProt P0DTC2); remark: listed apart in the source

Work on Bebtelovimab (antibody) yielded a Neutralization - IC50, pseudovirus [1] of 1220 ng/mL.
“Sotrovimab VH/VL (human IgG1 molecule expressing the same variable regions of Sotrovimab) (antibody)” showed a Neutralization - IC50, pseudovirus [1] of 304 ng/mL.
bebtelovimab (antibody) showed an EC80, pseudovirus neutralization, Vero E6, with isotype [2] of 2.9 ng/mL, an EC50, pseudovirus neutralization [3] of 0.12 ng/mL and an EC80, pseudovirus neutralization [3] of 1.4 ng/mL. It also gave an EC90, pseudovirus neutralization [3] of 6 ng/mL, an Emax, pseudovirus neutralization (% neutralization) [3] of 100 and an EC50, pseudovirus neutralization [4] of 0.13 ng/mL. It also gave an EC80, pseudovirus neutralization [4] of 1.1 ng/mL, an EC90, pseudovirus neutralization [4] of 3.7 ng/mL and an Emax, pseudovirus neutralization (% neutralization) [4] of 99.9. The EC50, pseudovirus neutralization [5] was 0.57 ng/mL, the EC50, pseudovirus neutralization, TMPRSS2-Vero E6, with isotype [5] was 1.7 ng/mL and the EC50, pseudovirus neutralization, Vero E6, with isotype [5] was 0.64 ng/mL. The EC80, pseudovirus neutralization [5] was 4.9 ng/mL, the EC80, pseudovirus neutralization, TMPRSS2-Vero E6, with isotype [5] was 11 ng/mL and the EC80, pseudovirus neutralization, Vero E6, with isotype [5] was 2.7 ng/mL. For the same substance, the EC90, pseudovirus neutralization [5] was 18 ng/mL, the EC90, pseudovirus neutralization, TMPRSS2-Vero E6, with isotype [5] was 32 ng/mL and the EC90, pseudovirus neutralization, Vero E6, with isotype [5] was 6.1 ng/mL. It also gave an Emax, pseudovirus neutralization (% neutralization) [5] of 99.9, an Emax, pseudovirus neutralization, TMPRSS2-Vero E6, with isotype (% neutralization) [5] of 99.4 and an Emax, pseudovirus neutralization, Vero E6, with isotype (% neutralization) [5] of 99.4. The EC50, pseudovirus neutralization, Vero E6, with isotype [6] was 0.29 ng/mL, the EC90, pseudovirus neutralization, Vero E6, with isotype [7] was 11 ng/mL and the Emax, pseudovirus neutralization, Vero E6, with isotype (% neutralization) [8] was 99.7.
For sotrovimab VH/VL-hamIgG2a (antibody), the EC50, pseudovirus neutralization, Vero E6 [5] was 8.51 ng/mL.
sotrovimab VH/VL-huIgG1 (antibody) showed an EC50, pseudovirus neutralization, Vero E6 [5] of 27.9 ng/mL.
For sotrovimab VH/VL-huIgG1-LS (antibody), the EC80, pseudovirus neutralization, Vero E6, with isotype [2] was 69 ng/mL, the EC50, pseudovirus neutralization, Vero E6 [5] was 35.2 ng/mL and the EC50, pseudovirus neutralization, Vero E6, with isotype [6] was 14 ng/mL. It also gave an EC90, pseudovirus neutralization, Vero E6, with isotype [7] of 170 ng/mL and an Emax, pseudovirus neutralization, Vero E6, with isotype (% neutralization) [8] of 98.3.
